Earlier results in paper PMC2880639.

Biological target: His62 (UniProt position 62, VESEAHPGSVQ)
Assay: kinetics
Settings: dissociated species undergoing association

R67 dihydrofolate reductase (type II DHFR) (Escherichia coli (plasmid R67))
pKa: 6.6
